In article PMC5753033 (2017):

B1: WAVE1 WCA, unlabeled, soluble (domain or fragment)
chain: STLPVISDARSVLLEAIRKGIQLRKVEEQREQEAKHERIENDVATILSRRIAVEYSDSEDDSEFDEVDWLE
B2: Alexa488-labeled WAVE1 WCA (domain or fragment)
chain: SCLPVISDARSVLLEAIRKGIQLRKVEEQREQEAKHERIENDVATILSRRIAVEYSDSEDDSEFDEVDWLE
modifications: Alexa488-maleimide on Cys490
B3: Mouse profilin 2a (natural protein)
chain: MAGWQSYVDNLMCDGCCQEAAIVGYCDAKYVWAATAGGVFQSITPVEIDMIVGKDREGFFTNGLTLGAKKCSVIRDSLYVDGDCTMDIRTKSQGGEPTYNVAVGRAGRVLVFVMGKEGVHGGGLNKKAYSMAKYLRDSGF

Columns and labels:
[1] = target: Native, cytoplasmic actin from Acanthamoeba castellanii, monomeric (Acanthamoeba castellanii); assay: FP
WAVE1 PRD[A] = WAVE1 PRD[A] (human, UniProt Q92558 277-488, C296 | C407, Texas Red maleimide (KCK variants) or Alexa 546 maleimide (C variants) on the introduced cysteine); assay: AUC
WAVE1 PRD[D] = WAVE1 PRD[D] (human, UniProt Q92558 277-488, C296 | C407, Texas Red maleimide (KCK variants) or Alexa 546 maleimide (C variants) on the introduced cysteine); assay: AUC
WAVE1 PRD[F] = WAVE1 PRD[F] (human, UniProt Q92558 277-488, C296 | C407, Texas Red maleimide (KCK variants) or Alexa 546 maleimide (C variants) on the introduced cysteine); assay: AUC
WAVE1 PRD[C] = WAVE1 PRD[C] (human, UniProt Q92558 277-488, C296 | C407, Texas Red maleimide (KCK variants) or Alexa 546 maleimide (C variants) on the introduced cysteine); assay: AUC
WAVE1 PRD[B] [2] = target: T1, WAVE1 PRD[B] (human, UniProt Q92558 277-488, C296 | C407, Texas Red maleimide (KCK variants) or Alexa 546 maleimide (C variants) on the introduced cysteine); assay: AUC
WAVE1 PRD[E] = WAVE1 PRD[E] (human, UniProt Q92558 277-488, C296 | C407, Texas Red maleimide (KCK variants) or Alexa 546 maleimide (C variants) on the introduced cysteine); assay: AUC
WAVE1 PRD [Null] = WAVE1 PRD [Null] (human, UniProt Q92558 277-488, C296 | C407, Texas Red maleimide (KCK variants) or Alexa 546 maleimide (C variants) on the introduced cysteine); assay: AUC
WAVE1 PRD[B] [3] = target: T1, WAVE1 PRD[B]; assay: AUC; 2:1 binding model, Kd1 (fit)

T1 sequence (Q92558 other isoform, or with tags, fused parts or gaps, change not shown): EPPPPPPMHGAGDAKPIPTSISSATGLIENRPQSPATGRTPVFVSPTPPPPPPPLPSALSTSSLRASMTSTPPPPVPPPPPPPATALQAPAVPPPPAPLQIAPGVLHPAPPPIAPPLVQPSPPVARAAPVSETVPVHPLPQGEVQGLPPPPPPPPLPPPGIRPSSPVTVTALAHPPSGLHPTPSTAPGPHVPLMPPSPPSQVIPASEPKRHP
Sequence of WAVE1 PRD[D] (Q92558 other isoform, or with tags, fused parts or gaps, change not shown): as above
Sequence of WAVE1 PRD[C] (Q92558 other isoform, or with tags, fused parts or gaps, change not shown): as above
Sequence of WAVE1 PRD [Null] (Q92558 other isoform, or with tags, fused parts or gaps, stated change not applied): as the sequence (Q92558 other isoform, or with tags, fused parts or gaps, change not shown) above
Sequence of WAVE1 PRD[A] (Q92558 other isoform, or with tags, fused parts or gaps, change not shown): as above
Sequence of WAVE1 PRD[F] (Q92558 other isoform, or with tags, fused parts or gaps, change not shown): as above
Sequence of WAVE1 PRD[E] (Q92558 other isoform, or with tags, fused parts or gaps, change not shown): as above

Row | Binder | Kd [1] | Kd (WAVE1 PRD[A]) | Kd (WAVE1 PRD[D]) | Kd (WAVE1 PRD[F]) | Kd (WAVE1 PRD[C]) | Kd (WAVE1 PRD[B] [2]) | Kd (WAVE1 PRD[E]) | Kd (WAVE1 PRD [Null]) | Kd (WAVE1 PRD[B] [3])
1 | B1 | 0.068 µM |  |  |  |  |  |  |  | 
2 | B2 | 0.029 µM |  |  |  |  |  |  |  | 
3 | B3 |  | 51 µM | 145 µM | 4 µM | 12 µM | 2 µM | 182 µM | 138 µM | 2.07 µM
